From publication PMC6028238

Key:
[1] = target: protein H on the surface of S. pyogenes AP1 bacteria (Streptococcus pyogenes (endogenous in strain AP1)); experiment: electron microscopy with gold-labelled protein
[2] = target: human C4b-binding protein (C4BP), purified from plasma (human) (UniProt P04003); experiment: negative-stain electron microscopy
[3] = target: protein H on the surface of S. pyogenes AP1 bacteria (Streptococcus pyogenes (endogenous in strain AP1)); experiment: flow cytometry on cells

## human C4b-binding protein (C4BP), purified from plasma (from UniProt P04003 49-597; P20851 18-252) (complex)
[1]
  gold particles of C4BP bound to the surface, with IgG (gold particles/mm^2): 917
  gold particles of C4BP bound to the surface, without IgG (gold particles/mm^2): 82

## protein H (Streptococcus pyogenes), recombinant (natural protein)
[2]
  percent of C4BP molecules complexed with protein H, with IgG: 83%
  percent of C4BP molecules complexed with protein H, without IgG: 7%

B1: human C4BP in serum of human C4BP transgenic mice (natural protein)
chain: NCGPPPTLSFAAPMDITLTETRFKTGTTLKYTCLPGYVRSHSTQTLTCNSDGEWVYNTFCIYKRCRHPGELRNGQVEIKTDLSFGSQIEFSCSEGFFLIGSTTSRCEVQDRGVGWSHPLPQCEIVKCKPPPDIRNGRHSGEENFYAYGFSVTYSCDPRFSLLGHASISCTVENETIGVWRPSPPTCEKITCRKPDVSHGEMVSGFGPIYNYKDTIVFKCQKGFVLRGSSVIHCDADSKWNPSPPACEPNSCINLPDIPHASWETYPRPTKEDVYVVGTVLRYRCHPGYKPTTDEPTTVICQKNLRWTPYQGCEALCCPEPKLNNGEITQHRKSRPANHCVYFYGDEISFSCHETSRFSAICQGDGTWSPRTPSCGDICNFPPKIAHGHYKQSSSYSFFKEEIIYECDKGYILVGQAKLSCSYSHWSAPAPQCKALCRKPELVNGRLSVDKDQYVEPENVTIQCDSGYGVVGPQSITCSGNRTWYPEVPKCEWETPEGCEQVLTGKRLMQCLPNPEDVKMALEVYKLSLEIEQLELQRDSARQSTLDKEL
[3]
  C4BP binding without IgG at 30 °C, as percent of the binding with IVIG: 40%
  C4BP binding without IgG at 39 °C, as percent of the binding with IVIG: < 10%
  fold increase of binding with 1 mg/ml IVIG against no IVIG: 2 fold
